Measurements as given in patent publication US20240043507A1.

Tests used:
Experiment in all cases: cell-based or functional assay
[1] = biological target: spike protein of SARS-CoV-2 strain B.1.1.7 (SARS-CoV-2) (UniProt P0DTC2)
[2] = biological target: spike protein of SARS-CoV-2 strain P.1 (SARS-CoV-2) (UniProt P0DTC2)
[3] = biological target: spike protein of SARS-CoV-2 strain B.1.351 (SARS-CoV-2) (UniProt P0DTC2)
[4] = biological target: spike protein of SARS-CoV-2 strain Victoria (SARS-CoV-2/human/AUS/VIC01/2020) (SARS-CoV-2) (UniProt P0DTC2)
[5] = biological target: SARS-CoV-2 spike protein on authentic virus, strain B.1.1.7 (SARS-CoV-2) (UniProt P0DTC2)
[6] = biological target: SARS-CoV-2 spike protein on authentic virus, strain SARS-CoV-2/human/AUS/VIC01/2020 (Victoria) (SARS-CoV-2) (UniProt P0DTC2)

Substance	FRNT50 ratio B.1.1.7/Victoria [1]	IC50 (FRNT neutralisation) [1]	FRNT50 ratio P.1/Victoria [2]	FRNT50 ratio B.1.351/Victoria [3]	IC50 (FRNT neutralisation) [3]	IC50 (FRNT neutralisation) [4]	IC50 (ug/ml), FRNT [5]	IC50 (FRNT, live virus neutralisation) [4]	IC50 (ug/ml), FRNT [6]
S309 (antibody)	1.5	0.078 µg/mL	1.9	2	0.082 µg/mL	0.04 µg/mL			
LY-CoV16 (antibody)	1.5	3.23 µg/mL	> 291	> 291	> 10 µg/mL	0.034 µg/mL			
ADG30 (antibody)	2.5	0.016 µg/mL	0.3	4.4	0.029 µg/mL	0.007 µg/mL			
REGN10933 (antibody)		0.014 µg/mL			3.28 µg/mL	0.004 µg/mL	0.014 µg/mL	0.004 µg/mL	0.004 µg/mL
AZD8895 (antibody)		0.011 µg/mL			0.046 µg/mL	0.005 µg/mL	0.011 µg/mL	0.005 µg/mL	0.005 µg/mL
ADG20 (antibody)	1.4	0.006 µg/mL	2.2	2.5	0.01 µg/mL	0.004 µg/mL			
AZD1061 (antibody)		0.012 µg/mL			0.014 µg/mL	0.013 µg/mL	0.012 µg/mL	0.013 µg/mL	0.013 µg/mL
LY-CoV555 (antibody)	1.5	0.009 µg/mL	> 1550	> 1550	> 10 µg/mL	0.006 µg/mL			
ADG10 (antibody)	1.8	0.01 µg/mL	0.5	1.9	0.011 µg/mL	0.006 µg/mL			
REGN10987 (antibody)		0.028 µg/mL			0.007 µg/mL	0.032 µg/mL	0.028 µg/mL	0.032 µg/mL	0.032 µg/mL
